Measurements reported in PMC8349458.

Target: ACE2-Fc-TD
Assay: SPR

Row | Substance | Half-life (ln2/kd) (s (from ln2/kd)) | Kd [nM]
1 | SARS-CoV-2 S1 domain, B.1.1.7 (alpha variant) (from UniProt P0DTC2 14-681) (domain or fragment) | 1190 | 1.73
2 | SARS-CoV-2 S1 domain, B.1.351 (beta variant) (from UniProt P0DTC2 14-681) (domain or fragment) | 454 | 
3 | SARS-CoV-2 S1 domain, D614G (from UniProt P0DTC2 14-681) (domain or fragment) |  | 6.91
